Assay results from patent US12116424 (WISCONSIN ALUMNI RESEARCH FOUNDATION, dated 2024).
Like-named read-outs stand apart in the source and are kept apart here. Bridges are numbered along the chain shown (N, C = ends). Where no end group is shown, it is not given here. [ ]: non-standard residue; d: D form.

Experiments:
Assay in all cases: cell-based or functional assay
L. monocytogenes AgrC [1] = target: T1, L. monocytogenes AgrC (Listeria monocytogenes (EGD-e))
L. monocytogenes AgrC [2] = target: T1, L. monocytogenes AgrC; remark: listed apart in the source
L. monocytogenes AgrC [3] = target: T1, L. monocytogenes AgrC; remark: listed apart in the source

Row | Binder | Max Activation (agr-GFP reporter, ΔagrD strain) (L. monocytogenes AgrC [1]) | Max Inhibition (agr-GFP reporter, wild-type strain) (L. monocytogenes AgrC [1]) | EC50 (agr-GFP reporter, ΔagrD strain) (L. monocytogenes AgrC [3]) | Max Activation (agr-GFP reporter, ΔagrD strain) (L. monocytogenes AgrC [3]) | Max Inhibition (agr-GFP reporter, wild-type strain) (L. monocytogenes AgrC [3]) | also measured
1 | YSTCDFIM (not fully specified; thiolactone ring Cys4-Met8 (Cys side chain to C-terminal carboxyl)) [Sa AIP-I] | 12.2% | 1.29% | – | – | – | –
2 | GVNACSSLF (not fully specified; thiolactone ring Cys5-Phe9 (Cys side chain to C-terminal carboxyl)) [Sa AIP-II] | 12% | 0% | – | – | – | –
3 | INCDFLL (bridge 3-C; also: thiolactone: Cys3 side chain to C-terminal carboxyl) [Sa AIP-III] | 11.3% | 0.64% | – | – | – | –
4 | YSTCYFIM (not fully specified; thiolactone ring Cys4-Met8 (Cys side chain to C-terminal carboxyl)) [Sa AIP-IV] | 9.81% | 8.56% | – | – | – | –
5 | INCAFLL (bridge 3-C; also: thiolactone: Cys3 side chain to C-terminal carboxyl) [Sa AIP-III D4A] | 12.3% | 5.87% | – | – | – | –
6 | KKCFMFV (bridge 3-C; also: thiolactone: Cys3 side chain to C-terminal carboxyl) [7-mer A2K] | – | – | – | – | – | EC50 (agr-GFP reporter, ΔagrD strain) (L. monocytogenes AgrC [2]): 185 nM; IC50 (agr-GFP reporter, wild-type strain) (L. monocytogenes AgrC [2]): 359 nM; Max Activation Observed (agr-GFP reporter, ΔagrD strain) (L. monocytogenes AgrC [2]): 64.8%; Max Inhibition Observed (agr-GFP reporter, wild-type strain) (L. monocytogenes AgrC [2]): 51.8%
7 | DSVCASYF (not fully specified; thiolactone ring Cys4-Phe8 (Cys side chain to C-terminal carboxyl)) [Se AIP-I] | 8.65% | 0% | – | – | – | –
8 | KA[dC]FMFV (bridge 3-C; also: thiolactone: dCys3 side chain to C-terminal carboxyl) [7-mer C3dC] | – | – | – | – | – | IC50 (agr-GFP reporter, wild-type strain) (L. monocytogenes AgrC [2]): 3800 nM; Max Activation Observed (agr-GFP reporter, ΔagrD strain) (L. monocytogenes AgrC [2]): 7.08%; Max Inhibition Observed (agr-GFP reporter, wild-type strain) (L. monocytogenes AgrC [2]): 49.3%
9 | KACF[dM]FV (bridge 3-C; also: thiolactone: Cys3 side chain to C-terminal carboxyl) [7-mer M5dM] | – | – | – | – | – | EC50 (agr-GFP reporter, ΔagrD strain) (L. monocytogenes AgrC [2]): 8.29 nM; Max Activation Observed (agr-GFP reporter, ΔagrD strain) (L. monocytogenes AgrC [2]): 71.9%; Max Inhibition Observed (agr-GFP reporter, wild-type strain) (L. monocytogenes AgrC [2]): 18.5%
10 | KA[dC]F[dM]FV (bridge 3-C; also: thiolactone: dCys3 side chain to C-terminal carboxyl) [7-mer C3dC/M5dM] | – | – | – | – | – | IC50 (agr-GFP reporter, wild-type strain) (L. monocytogenes AgrC [2]): 1290 nM; Max Activation Observed (agr-GFP reporter, ΔagrD strain) (L. monocytogenes AgrC [2]): 7.89%; Max Inhibition Observed (agr-GFP reporter, wild-type strain) (L. monocytogenes AgrC [2]): 88.9%
11 | NASKYNPCSNYL (not fully specified; thiolactone ring Cys8-Leu12 (Cys side chain to C-terminal carboxyl)) [Se AIP-II] | 8.45% | 0% | – | – | – | –
12 | NAAKYNPCASYL (bridge 8-C) [Se AIP-III] | 8.73% | 0% | – | – | – | –
13 | ASVCAAYF (not fully specified; thiolactone ring Cys4-Phe8 (Cys side chain to C-terminal carboxyl)) [Se AIP-I D1AS6A] | 12.4% | 0% | – | – | – | –
14 | ASACAAYF (not fully specified; thiolactone ring Cys4-Phe8 (Cys side chain to C-terminal carboxyl)) [Se AIP-I D1AV3AS6A] | 12.1% | 0.06% | – | – | – | –
15 | KACFMFV (bridge 3-C; also: thiolactone: Cys3 side chain to C-terminal carboxyl) [7-mer, K-A-(C-F-M-F-V)] | – | – | 61.7 nM | 64.6% | 38.3% | IC50 (agr-GFP reporter, wild-type strain) (L. monocytogenes AgrC [3]): 866 nM
16 | SKACFMFV (not fully specified; thiolactone ring Cys4-Val8 (Cys side chain to C-terminal carboxyl)) [8-mer] | – | – | 68.6 nM | 71.5% | 29.4% | IC50 (agr-GFP reporter, wild-type strain) (L. monocytogenes AgrC [3]): 842 nM
17 | MSKACFMFV (not fully specified; thiolactone ring Cys5-Val9 (Cys side chain to C-terminal carboxyl)) [9-mer] | – | – | 23.5 nM | 93.6% | 8.89% | IC50 (agr-GFP reporter, wild-type strain) (L. monocytogenes AgrC [3]): 416 nM
18 | SMSKACFMFV (not fully specified; thiolactone ring Cys6-Val10 (Cys side chain to C-terminal carboxyl)) [10-mer] | – | – | 21.5 nM | 110% | 0% | –
19 | SSMSKACFMFV (not fully specified; thiolactone ring Cys7-Val11 (Cys side chain to C-terminal carboxyl)) [11-mer] | – | – | 14.3 nM | 111% | 3.9% | –
20 | DSSMSKACFMFV (not fully specified; thiolactone ring Cys8-Val12 (Cys side chain to C-terminal carboxyl)) [12-mer] | – | – | 43.4 nM | 116% | 0.26% | –
21 | ADSSMSKACFMFV (not fully specified; thiolactone ring Cys9-Val13 (Cys side chain to C-terminal carboxyl)) [13-mer] | – | – | 29 nM | 108% | 0% | –
22 | VADSSMSKACFMFV (not fully specified; thiolactone ring Cys10-Val14 (Cys side chain to C-terminal carboxyl)) [14-mer] | – | – | 39.9 nM | 105% | 0% | –
23 | KVADSSMSKACFMFV (not fully specified; thiolactone ring Cys11-Val15 (Cys side chain to C-terminal carboxyl)) [15-mer] | – | – | 22.2 nM | 122% | 0.23% | –
